In assay [1] the target is HIV-1 HXB2 Env glycoprotein labelled with super folder GFP (GFPOPT) in the V4 loop of gp120, on pseudovirions (HIV-1 group M subtype B, isolate HXB2) (UniProt P04578).
Assay [2] has as its target HIV-1 HXB2 Env glycoprotein labelled with super folder GFP (GFPOPT) in the V4 loop of gp120, on pseudovirions (HIV-1 HXB2) (UniProt P04578). Put plainly: FRET or BRET. (BRET reads energy transfer from a luciferase to a nearby fluorophore.)
For assay [3] the target is unchanged. Put plainly: FRET or BRET; single-virus Eapp traces, dwell times as CDF; virions on MT-4 T cells with 100 µg/mL PGT145.
Assay [4] shares this target. Put plainly: FRET or BRET; single-virus Eapp traces, dwell times as CDF; mature virions engaged with living MT-4 T cells; room temperature.
For assay [5] the target is unchanged. In words: FRET or BRET; single-virus Eapp traces (3 s per frame, 5 min), dwell times as cumulative distribution functions; mature virions in vitro, unliganded; room temperature.
For assay [6] the target is unchanged.

Consider 3 substances from PMC8551276.

With “anti-HIV-1 gp120 monoclonal, b12 (antibody)”, in assay [1], the CDF average lifetime of the closed Env conformation, virions on MT-4 T cells with 100 µg/mL b12 (63 s without) worked out at 125 s and the CDF average lifetime of the open Env conformation, virions on MT-4 T cells with 100 µg/mL b12 (168 s without) came to 61 s.

“HIV-1 HXB2 Env glycoprotein labelled with super folder GFP (GFPOPT) in the V4 loop of gp120, on pseudovirions (from UniProt P04578) (complex)” had a CDF average lifetime of the high FRET regime (Env-Env interactions), with sCD4 in assay [2] of 16 s. For the same substance, the CDF average lifetime of the high FRET regime (Env-Env interactions), on T cells with PGT145 in assay [3] was determined as 10 s. The substance also had a CDF average lifetime of the high FRET regime (Env-Env interactions), virions on MT-4 T cells in assay [4] of 53 s. Moreover, in assay [5], the CDF average lifetime of the high FRET regime (Env-Env interactions) was determined as 68 s.

For “Human soluble CD4 recombinant protein (sCD4_(D1-D4)) (domain or fragment)”, in assay [6], the CDF average lifetime of the closed Env conformation (0.12<Eapp<0.23) on mature virions with 10 µg/mL sCD4 (154 s without) came to 75 s and the CDF average lifetime of the open Env conformation (Eapp<0.12) on mature virions with 10 µg/mL sCD4 (84 s without) was found to be 241 s.
